Numbering of substitutions follows the chain as printed.

In data set [1] the target is T1, His-SPL7 (SBP domain) (Arabidopsis, UniProt Q8S9G8 122-228).
T1 sequence: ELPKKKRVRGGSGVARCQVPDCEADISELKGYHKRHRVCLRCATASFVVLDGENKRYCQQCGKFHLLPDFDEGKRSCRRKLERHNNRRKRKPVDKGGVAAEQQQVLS
The data set can be described thus: EMSA; Chemiluminescent EMSA Kit (Beyotime), manufacturer's protocol; buffer, salt, pH and temperature not stated. The settings on record: protein: recombinant; tags: 6xHis (pET-28a); label: 5' biotin (probe); blunt. (A gel shift assay detects complexes by their altered migration in electrophoresis.)

In data set [2] the target is T1, His-SPL7 (SBP domain). The data set can be described thus: competition; cold mutant against biotin-N1; Chemiluminescent EMSA Kit (Beyotime), manufacturer's protocol; buffer, salt, pH and temperature not stated. The conditions noted are these: protein: recombinant; tags: 6xHis (pET-28a); blunt.

B1: ProFRO4-G (dsDNA)
DNA 1: ACCCGTACAACGTATTCGTTACGAACCAATTTCTA
DNA 2: TAGAAATTGGTTCGTAACGAATACGTTGTACGGGT
Regarding B1, the binding result in the data set with His-SPL7 (SBP domain) [1] is given as “binds”.

B2: ProCITF1-G (dsDNA)
DNA 1: CCATTTGTACTGCATAAAGACCCCCCACGTACATACAT
DNA 2: ATGTATGTACGTGGGGGGTCTTTATGCAGTACAAATGG
As to B2, the binding result in the data set with His-SPL7 (SBP domain) [1] was “binds”.

B3: mProCITF1-G (dsDNA)
DNA 1: B2 DNA 1 with T8G, A9C, T30G, A31C
DNA 2: B2 DNA 2 with T8G, A9C, T30G, A31C
As for B3, the binding result in the data set with His-SPL7 (SBP domain) [2] was “no binding”.

B4: ProFRO5-G (dsDNA)
DNA 1: CTATCATGTACGTTTTTAAGAGTTTCGTACAAATTCACGT
DNA 2: ACGTGAATTTGTACGAAACTCTTAAAAACGTACATGATAG
Take B4: the binding result in the data set with His-SPL7 (SBP domain) [1] is listed as “binds”.

B5: ProCOPT2-G (dsDNA)
DNA 1: GATGATGTACTTGTACTACAGTACAACACATAC
DNA 2: GTATGTGTTGTACTGTAGTACAAGTACATCATC
On to B5, for which the binding result with His-SPL7 (SBP domain) [1] is given as “binds”.

Values taken from paper PMC9266912, “CITF1 Functions Downstream of SPL7 to Specifically Regulate Cu Uptake in Arabidopsis”.
